This note sets out measurements from patent US20030036642.

For the series, the target named is PDGF-AB (A-chain/B-chain heterodimer) (Homo sapiens) (UniProt P04085+P01127). The experiment in a line: filter.
Sequence of PDGF-AB (A-chain/B-chain heterodimer) (Homo sapiens) (P01127 82-190, chain 2 of 2, other chains not shown): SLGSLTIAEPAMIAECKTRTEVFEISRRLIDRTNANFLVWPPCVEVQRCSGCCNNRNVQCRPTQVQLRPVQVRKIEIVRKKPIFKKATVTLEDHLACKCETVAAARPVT

As to “ATCCGCCTGATTAGCGATACTNNNNNNNNNNNNNNNNNNNNNNNNNNNNNNNNNNNNNNNNACTTGAGCAAAATCACCTGCAGGGG [round 12 affinity-enriched ssDNA pool]”, where the note is “after 12 rounds, apparent Kd”, the Kd is 0.05 nM.
Turning to “ATCCGCCTGATTAGCGATACTNNNNNNNNNNNNNNNNNNNNNNNNNNNNNNNNNNNNNNNNACTTGAGCAAAATCACCTGCAGGGG [starting random ssDNA pool]”, the binding signal (fold lower affinity than round 12 pool) came out at 700.
The sequence “GGGAGACAAGAAUAACGCUCAANNNNNNNNNNNNNNNNNNNNNNNNNNNNNNNNNNNNNNNNNNNNNNNNNNUUCGACAGGAGGCUCACAACAGGC [starting random 2'-F-pyrimidine RNA pool]” returned a Kd (2'-F all C,U, random 2'-F-pyrimidine RNA, method inferred) of 35 nM.
